# Reference: US20260083859A1, “SUSTAINED TRANSGENE EXPRESSION OF MODIFIED ERT2 PEPTIDE-SUICIDE PROTEIN FUSION POLYPEPTIDES” (Senti Biosciences, Inc., priority 2023, published 2026)
# Where a chain is given by its changes, count along the chain named. Entries after “also recorded” stand apart in the source; their conditions may differ.
# B1: Construct 1: GAPDH-targeting construct encoding modified ERT2 peptide-suicide protein fusion polypeptide ERT2*mut81-Casp9, SEQ ID NO: 44 (protein)
# chain: AGDMRAANLWPSPLMIKRSKKNSLALSLTADQMVSALLDAEPPILYSEYDPTRPFSEASMMGLLTNLADRELVHMINWAKRVPGFVDLTLHDQVHLLECAWMEILMIGVVWRSMEHPVKLLFAPNLLLDRDQGKCVEGLVEIFDMLLATSSRFRMMNLQGEEFVCLKSIILLNSGVYTFLPSTLKSLEEKDHIHRVLDKITDTLIHLMAKAGLTLQQQHQRLAQLLLILSHIRHMSNKGMELLYSMKCKNVVPLYDLLLEAADAHRLHAPTSRGGASVEETDQSHLATAGSTSSHSLQKYYITGEAEGFPATGGGGSGGGGSGGGGSVDGFMDVGALESLRGNADLAYILSMEPCGHCLIINNVNFCRESGLRTRTGSNIDCEKLRRRFSSLHFMVEVKGDLTAKKMVLALLELARQDHGALDCCVVVILSHGCQASHLQFPGAVYGTDGCPVSVEKIVNIFNGTSCPSLGGKPKLFFIQACGGEQKDHGFEVASTSPEDESPGSNPEPDATPFQEGLRTFDQLDAISSLPTPSDIFVSYSTFPGFVSWRDPKSGSWYVETLDDIFEQWAHSEDLQSLLLRVANAVSVKGIYKQMPGCFNFLRKKLFFKTS
# B2: Construct 3: GAPDH-targeting construct encoding fusion polypeptide ERT2*mut63-Casp9, SEQ ID NO: 48 (protein)
# chain: B1 chain with L72I, M102L, Q132E, P181S, M235A, L242F
# B3: Construct 4: GAPDH-targeting construct encoding fusion polypeptide ERT2*mut41-Casp9, SEQ ID NO: 50 (protein)
# chain: B1 chain with L72I, M102L, L127V, Q132E, L139M, P181S
# B4: Construct 2: GAPDH-targeting construct encoding fusion polypeptide ERT2*mut88-Casp9, SEQ ID NO: 46 (protein)
# chain: B1 chain with M102L, Q132E, L139M, L242F
# Experiments:
# [1] = test system: iPSCs; assay: Apoptosis induction in transfected iPSCs monitored by microscopy and Incucyte tracking; assay type: cell-based, human; settings: 1 nM 4-OHT, up to two days; for apoptosis / cell killing: construct-transfected iPSCs
# [2] = test system: iPSC clones; assay: Apoptotic efficacy in individual construct clones treated with 4-OHT, Endoxifen or combinations; assay type: cell-based, human; settings: for lowest effective concentration in 4-OHT-Endoxifen combination: clone Construct 1 c.165; for apoptotic (killing) efficacy: 24 hours
# Protocol: Next, individual clones that were determined to be suitable for further assessments were evaluated for 24 hours in the presence of 4-OHT at two different concentrations.
# Individual Construct 1-4 clones were also assessed for their responses to another tamoxifen metabolite, Endoxifen. Clones were evaluated for 24 hours in the presence of Endoxifen at three different concentrations.
# Tamoxifen is a prodrug that is broken down into its active metabolites in vivo. To model predicted drug concentrations in a patient, the clone Construct 1 c.165 was treated with various combinations of 4-OHT and Endoxifen, wherein 1.25 nM Endoxifen was combined with a concentration of 4-OHT ranging between 0.125 nM to 1 nM (FIG. 12A). […] In the next evaluation, 0.125 nM 4-OHT was combined with either 0.625 or 1.25 nM Endoxifen (FIG. 12B).
# [3] = test system: PSC-derived myeloid progenitor cells; assay: TamCasp9 Safety Switch activation in PSC-derived myeloid progenitor cells, AOPI staining, Incucyte SX5; assay type: cell-based, human; settings: for apoptosis in unedited cells: unedited differentiated myeloid progenitors, combination 4-OHT and Endoxifen treatment
# Protocol: A hPSC line engineered with TamCasp9 Construct 1 and an unedited parental control hPSC line were differentiated into myeloid progenitor cells through the addition of various growth factors and small molecules. Differentiated cells were plated at 1×10^5 cells/cm^2 in an ultra-low attachment cell culture plate for further myeloid cell maturation. After 7 days in maturation medium, cells were collected and frozen down.
# For testing of TamCasp9 Safety Switch activation, myeloid cells were plated at 1.5×10^5 cells/cm^2 in a 96-well tissue culture plate with a 1:750 dilution of ViaStain AOPI Staining Solution (Nexcelom) in X-VIVO 15 Medium with 10 ng/mL GM-CSF. The kill switch was induced with 0, 1, 10 or 100 uM of Endoxifen over 3 days and images were collected every 6 hours on the Incucyte SX5 (Sartorius).
# To better model predicted drug concentrations in a patient by testing activation of the kill switch against a range of tamoxifen metabolites, the PSC clone Construct 1 c.165, engineered to incorporate an exemplary modified ERT2 peptide-suicide protein fusion polypeptide construct (Table 3), was differentiated to myeloid progenitor cells as depicted in FIG. 13A. Differentiated cells were plated at 1×10^5 cells/cm^2 in an ultra-low attachment cell culture plate for further myeloid cell maturation. After 7 days in maturation medium, cells were collected and frozen down. For testing of TamCasp9 Safety Switch activation, myeloid cells were plated at 1.0×10^5 cells/cm^2 in a 96-well tissue culture plate with a 1:750 dilution of ViaStain AOPI Staining Solution (Nexcelom) in X-VIVO 15 Medium with 10 ng/mL GM-CSF. The kill switch was induced with varying concentrations of combination 4-OHT and Endoxifen treatment over 4 days and images were collected every 4 hours on the Incucyte SX5, with 12 hour timepoints plotted on a graph (Sartorius) (FIG. 14). Either 2.5 nM or 5 nM of Endoxifen was tested in combination with either 0.5 nM, 1 nM or 10 nM of 4-OHT. 100 nM Endoxifen was added as positive killing control as per FIG. 13E.
# [4] = test system: PSC-derived microglial precursor cells or myeloid progenitor cells; assay: Apoptosis in PSC-derived microglial precursor cells or myeloid progenitor cells (Example 8); assay type: cell-based; settings: cells from PSCs engineered with Table 3 constructs; 1, 5, 50 or 100 nM 4-OHT, or 5, 10, 50 or 100 nM Endoxifen
# Protocol: To validate conservation of kill switch function after PSCs are differentiated to precursor cells or myeloid progenitor cells, PSCs engineered to incorporate the modified ERT2 peptide-suicide protein fusion polypeptide constructs outlined in Table 3 were differentiated into microglial precursor cells or myeloid progenitor cells. Thereafter PSC-derived microglial precursor cells or myeloid progenitor cells are treated with Endoxifen, 4-OHT or media alone and tested for incorporation of the modified ERT2 peptide-suicide protein fusion polypeptide in the STEL site.
# To test function of the modified ERT2 peptide-suicide protein fusion polypeptide constructs in PSC-derived microglial precursor cells or myeloid progenitor cells, cells are cultured, then treated with either lnM, 5 nM, 50 nM, or 100 nM 4-OHT, or 5 nM, 10 nM, 50 nM, or 100 nM Endoxifen, before assessment of apoptosis.
# [5] = test system: human iPSCs; assay: Conventional PCR (agarose gel) of knock-in iPSC pools, with or without 4-OHT; assay type: cell-based; settings: iPSC pools treated with 1 nM 4-OHT
# Protocol: (§1) Modified ERT2 peptide-suicide protein fusion polypeptide encoding constructs were delivered to human iPSCs via Nucleofection with a GAPDH targeting ribonucleoprotein (RNP) complex comprising of Cpf1 endonuclease and a single guide RNA (sgRNA) targeting the coding sequence of the GAPDH gene. The sgRNA comprised a sequence 5′ […] 3′ (SEQ ID NO: 60). Briefly, iPSCs were cultured in Essential 8 (E8) medium and maintained at 37° C. at 5% CO2 level between passages. Passages were done at 75 to 80% confluency. On the day of Nucleofection, iPSCs were thawed and immediately Nucleofected in Lonza P3 Primary Cell Nucleofection buffer. 7.5 μg of each plasmid construct (BRC00058-61) were Nucleofected into iPSCs using GAPDH Cpf1 RNP with LONZA 4D Nucleofector. The Nucleofected cells were then plated at 50,000 cells/cm^2 per well of a 6-well plate and grown in E8 medium (plus Rock inhibitor Y-27632 from Tocris) for 72 to 96 hours. Knock-in pools were screened for integration 7d post-Nucleofection using ddPCR, as well as conventional PCR.
# [6] = test system: PSC-derived dopaminergic neurons; assay: Apoptosis in PSC-derived dopaminergic neurons (Example 9); assay type: cell-based; settings: neurons from PSCs engineered with Table 3 constructs; 1, 5, 50 or 100 nM 4-OHT, or 5, 10, 50 or 100 nM Endoxifen
# Protocol: To validate conservation of kill switch function after PSCs are differentiated to dopaminergic neurons, PSCs engineered to incorporate the modified ERT2 peptide-suicide protein fusion constructs outlined in Table 3 are differentiated into dopaminergic neurons. Thereafter PSC-derived dopaminergic neurons are treated with Endoxifen, 4-OHT or media alone and tested for incorporation of the modified ERT2 peptide-suicide protein fusion polypeptide construct in the STEL site.
# To test function of the modified ERT2 peptide-suicide protein fusion polypeptides in PSC-derived dopaminergic neurons, dopaminergic neurons are cultured, then treated with either lnM, 5 nM, 50 nM, or 100 nM 4-OHT; or 5 nM, 10 nM, 50 nM, or 100 nM Endoxifen, before assessment of apoptosis.
# [7] = test system: human iPSCs; assay: Flow cytometric analysis of cleaved Caspase-3 in transfected iPSCs; assay type: cell-based; settings: 1 nM 4-OHT, two-day treatment
# Excerpt: In another set of assessments, Construct 1 or Construct 2 transfected iPSCs were harvested for flow cytometric analysis. The primary antibody used was an anti-human/mouse cleaved Caspase-3. The primary antibody detects human and mouse Caspase 3 cleaved at Asp175.
# [8] = test system: human iPSCs; assay: Junction GAPT2A ddPCR of knock-in iPSC pools for integration at GAPDH locus, with or without 4-OHT; assay type: cell-based; settings: pooled iPSCs treated with 1 nM 4-OHT
# Protocol: as §1
# Whereas the integration dropped from 5.7% to 1% in Construct 1-transfected cell pools and from 4.5% to 0.7% in Construct 2-transfected cell pools when treated with 1 nM 4-OHT (FIG. 4A).
Molecule,lowest effective concentration in 4-OHT-Endoxifen combination [2],apoptosis in unedited cells [3],apoptosis (cleaved Caspase-3 flow cytometry) [7],fusion polypeptide sequence integration (junction GAPT2A ddPCR) [8],apoptosis / cell killing [1],other results
4-hydroxytamoxifen [Construct 4-OHT],0.125 nM,did not induce apoptosis,,,,cell growth and density ([1]; unedited control cells): no detectable effect on cell health and growth; apoptosis [4]: resulted in apoptosis; amount of cells carrying integration of kill-switch fusion sequences (PCR band intensity) [5]: reduced the amount of cells that carried integration of the kill-switch fusion sequences at the GAPDH locus; apoptosis [6]: resulted in apoptosis
"CC/C(=C(\c1ccc(O)cc1)c1ccc(OCCNC)cc1)c1ccccc1 [Endoxifen, endoxifen, reference compound]",1.25 nM,did not induce apoptosis,,,,
B1,,,able to induce apoptosis in the majority of the cells,1%,cells were completely killed by day 2,"apoptotic (killing) efficacy ([2]; 1 nM 4-OHT): displayed higher efficacy than Construct 2-4 clones; also recorded: highest apoptotic efficacy; apoptotic (killing) efficacy ([2]; 1 nM Endoxifen, compared to hygromycin control): approached the level of apoptosis by hygromycin control at 24 hours; apoptosis (kill switch activity) ([3]; 0, 1, 10 or 100 uM of Endoxifen over 3 days): induced apoptosis following endoxifen treatment"
B2,,,,1.4%,cells were completely killed by day 2,
B3,,,,2.3%,cells were completely killed by day 2,
B4,,,failed to do so,0.7%,did not induce apoptosis,"apoptotic (killing) efficacy ([2]; 5 nM 4-OHT): able to induce apoptosis; apoptotic (killing) efficacy ([2]; 10 nM Endoxifen, compared to hygromycin kill control): able to induce apoptosis"
